Here are results for six molecules from patent US20230203155A1 (ALMAC DISCOVERY, published 2023).

As usually defined, the Kd is a measure of binding affinity in units of concentration. One may read the koff as the first-order rate constant of dissociation. The kon is the rate constant with which the complex forms.

B1: P3A1 his myc (VNAR)
VNAR: TRVDQTPRTATKETGESLTINCVLTDTSYGLYSTSWFRKNPGTTDWERMSIGGRYVESVNKGAKSFSLRIKDLTVADSATYYCKAREARHPWLRQWYDGAGTVLTVNQ
notes: VNAR; also called P3A1 6xHis myc
B2: Peptide 5 (peptide)
peptide: RSTIYGSRLRIRNLDTTDTGYFQ
notes: linear ROR1 ECD peptide

The target in test [1] is T1, human ROR1-hFc fusion protein (extracellular domain) (human).
T1 construct: Whole entry 'human ROR1-Fc (CHO)'; also called hROR1; huROR1-Fc
Put plainly: SPR, ROR1-hFc on chip. For orientation: In SPR one partner is held on a chip, and binding of the other changes the refractive index at the surface.

In test [2] the target is T1, human ROR1-hFc fusion protein …. Put plainly: SPR, ROR1-hFc on chip. This is another data set of the same source.
For test [3], the target named is T2, recombinant human ROR1 (hROR1), construct not stated (human, UniProt Q01973 30-403, limits assumed). Put plainly: SPR, hROR1 on chip.
In test [4] the target is T3, human ROR1 (FZ domain)-Fc (human).
T3 construct: also called Fz-Fc; Frizzle domain
Put plainly: direct ELISA on coated Frizzled domain, panel Binding of P3A1 to human ROR1 domains. On the technique in general: In an ELISA, binding on a coated surface is turned into a signal by an enzyme label.

In test [5] the target is T4, human ROR2-hFc fusion protein (extracellular domain) (human).
T4 construct: Whole entry 'human ROR2-Fc (CHO)'; also called hROR2
The test can be described thus: direct ELISA, panel Binding to human ROR2-Fc.

Test [6] concerns the target T2, recombinant human ROR1 (hROR1), …. The test can be described thus: SPR, hROR1 on chip with competitor B1 pre-captured.
Test [7] has as its target T5, mouse ROR1-Fc fusion protein (mouse).
T5 construct: Whole entry 'mouse ROR1-Fc (CHO)'; also called mROR1
The test can be described thus: SPR, mouse ROR1 on chip.

The target in a further test is T6, Fz-Kr-Fc.
T6 construct: also called human ROR1 (FZKR domains)-Fc (CHO)
Put plainly: analytical SEC and SDS-PAGE of fractions.

The target of test [8] is T7, rat ROR1-Fc fusion protein (rat).
T7 construct: Whole entry 'rat ROR1-Fc (CHO)'; also called rROR1
Put plainly: SPR, rat ROR1 on chip.

The test “Peptide 5” deals with B2. Put plainly: direct ELISA on coated peptide 5 [continued].
Another test deals with T8, Peptide 4 (human).
T8 construct: linear ROR1 ECD peptide
T8 peptide: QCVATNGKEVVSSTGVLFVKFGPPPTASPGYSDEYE
Put plainly: direct ELISA on coated peptide (in PBS), panel P3A1 direct binding ELISA.

The next test has as its target T9, Peptide 1 (human).
T9 construct: linear ROR1 ECD peptide
T9 peptide: YMESLHMQGEIENQI
Described as above.

Another test addresses T10, Peptide 3 (human).
T10 construct: linear ROR1 ECD peptide
T10 peptide: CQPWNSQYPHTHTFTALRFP
The test is described as above.

The target of another test is T11, Peptide 2 (human).
T11 construct: linear ROR1 ECD peptide; insoluble in PBS
T11 peptide: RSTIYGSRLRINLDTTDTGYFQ
The test is described as above.

Test [9] has as its target T12, B1 VNAR with C-terminal His6Myc tag.
T12 construct: VNAR, E. coli; also called B1 his myc; B1HisMyc monomer
Put plainly: competition ELISA: VNAR pre-incubated with peptide 5, residual binding to coated huROR1-Fc [continued].

The next test concerns the target T13, D3-[G4S]5-D3 his myc.
T13 construct: VNAR homodimer by genetic fusion; also called D3-D3; D3 dimer
The description is as above.

The test “P3A1 his myc” deals with B1. The description is as above.
For the next test, the target named is T14, D3 his myc.
T14 construct: VNAR; made in E. coli and in HEK293 (expression system under assay); also called D3 WT
The description is as above.

The target in test [10] is T1, human ROR1-hFc fusion protein …. The test can be described thus: SPR, ROR1-hFc on chip. The source holds these as a separate data set.
The target of test [11] is T4, human ROR2-hFc fusion protein …. The test can be described thus: SPR, ROR2-hFc on chip.
The next test addresses T15, human serum albumin (human, UniProt P02768 25-609).
T15 construct: also called HSA
Put plainly: ELISA at fixed concentration.

The target of test [12] is T16, human ROR1 on the surface of ROR1hi human cancer cell lines (human, UniProt Q01973 30-937).
T16 construct: whole, on cells; Cell line is named under assay; also called cell surface ROR1
Put plainly: flow cytometry, A549 (ROR1hi) cells. Background: Flow cytometry measures light scatter and fluorescence of single cells or particles in a stream.

Test [13] addresses T4, human ROR2-hFc fusion protein …. Put plainly: SPR, ROR2-hFc on chip. The source holds these as a separate data set.
The target of test [14] is T16, human ROR1 on the surface of ROR1hi …. The test can be described thus: flow cytometry, A549 (ROR1hi) cells, 4°C.
In test [15] the target is T1, human ROR1-hFc fusion protein …. The test can be described thus: Octet or SPR, hROR1.
The target is the same in test [16]. The test can be described thus: SPR, ROR1-hFc on chip. This is another data set of the same source.
The target of test [17] is T2, recombinant human ROR1 (hROR1), …. Put plainly: SPR, hROR1 on chip with competitor P3A1 dimer pre-captured.
Test [18] deals with T1, human ROR1-hFc fusion protein …. The test can be described thus: SPR, human ROR1 ECD-Fc on chip.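 Also: SPR binding kinetics of VNAR and VNAR-Fc molecules run at a range of concentrations over immobilised target, rate and affinity constants fitted with QDat software.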
In test [19] the target is T2, recombinant human ROR1 (hROR1), …. Put plainly: SPR, hROR1 on chip. The source holds these as a separate data set.

T1 sequence (chain, as listed by the source limits assumed): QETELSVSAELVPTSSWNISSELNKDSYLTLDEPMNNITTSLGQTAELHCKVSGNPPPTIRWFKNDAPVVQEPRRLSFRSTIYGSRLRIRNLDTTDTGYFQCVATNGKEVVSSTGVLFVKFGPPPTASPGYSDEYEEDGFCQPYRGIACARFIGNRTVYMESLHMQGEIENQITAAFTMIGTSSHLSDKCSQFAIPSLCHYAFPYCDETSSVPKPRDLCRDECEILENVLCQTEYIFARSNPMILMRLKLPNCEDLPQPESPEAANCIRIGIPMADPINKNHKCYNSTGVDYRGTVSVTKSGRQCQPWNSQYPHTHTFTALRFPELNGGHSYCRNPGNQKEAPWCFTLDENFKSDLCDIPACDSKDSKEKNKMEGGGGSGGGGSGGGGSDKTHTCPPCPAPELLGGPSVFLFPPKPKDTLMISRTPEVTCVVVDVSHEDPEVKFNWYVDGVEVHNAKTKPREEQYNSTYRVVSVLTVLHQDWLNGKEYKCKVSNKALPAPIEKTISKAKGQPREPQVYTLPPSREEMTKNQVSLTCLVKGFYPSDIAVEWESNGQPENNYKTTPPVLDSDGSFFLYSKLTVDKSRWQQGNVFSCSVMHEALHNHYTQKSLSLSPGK
T5 sequence (chain, as listed by the source limits assumed): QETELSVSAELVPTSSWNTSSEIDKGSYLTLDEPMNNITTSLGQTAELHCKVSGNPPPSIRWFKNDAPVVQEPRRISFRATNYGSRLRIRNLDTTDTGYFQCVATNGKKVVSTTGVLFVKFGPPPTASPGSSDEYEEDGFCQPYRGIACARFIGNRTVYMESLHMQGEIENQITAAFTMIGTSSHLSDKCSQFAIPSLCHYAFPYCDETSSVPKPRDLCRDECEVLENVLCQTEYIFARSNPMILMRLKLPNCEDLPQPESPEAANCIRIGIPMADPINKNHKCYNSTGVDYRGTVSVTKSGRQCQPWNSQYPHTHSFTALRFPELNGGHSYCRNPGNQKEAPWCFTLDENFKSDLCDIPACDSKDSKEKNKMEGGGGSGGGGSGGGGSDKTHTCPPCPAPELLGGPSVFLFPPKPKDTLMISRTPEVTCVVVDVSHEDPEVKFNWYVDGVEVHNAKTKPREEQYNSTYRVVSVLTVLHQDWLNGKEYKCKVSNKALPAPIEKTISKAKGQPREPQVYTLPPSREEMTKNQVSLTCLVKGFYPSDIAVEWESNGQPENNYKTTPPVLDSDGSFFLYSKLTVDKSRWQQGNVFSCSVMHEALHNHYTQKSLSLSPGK
T7 sequence (chain, as listed by the source limits assumed): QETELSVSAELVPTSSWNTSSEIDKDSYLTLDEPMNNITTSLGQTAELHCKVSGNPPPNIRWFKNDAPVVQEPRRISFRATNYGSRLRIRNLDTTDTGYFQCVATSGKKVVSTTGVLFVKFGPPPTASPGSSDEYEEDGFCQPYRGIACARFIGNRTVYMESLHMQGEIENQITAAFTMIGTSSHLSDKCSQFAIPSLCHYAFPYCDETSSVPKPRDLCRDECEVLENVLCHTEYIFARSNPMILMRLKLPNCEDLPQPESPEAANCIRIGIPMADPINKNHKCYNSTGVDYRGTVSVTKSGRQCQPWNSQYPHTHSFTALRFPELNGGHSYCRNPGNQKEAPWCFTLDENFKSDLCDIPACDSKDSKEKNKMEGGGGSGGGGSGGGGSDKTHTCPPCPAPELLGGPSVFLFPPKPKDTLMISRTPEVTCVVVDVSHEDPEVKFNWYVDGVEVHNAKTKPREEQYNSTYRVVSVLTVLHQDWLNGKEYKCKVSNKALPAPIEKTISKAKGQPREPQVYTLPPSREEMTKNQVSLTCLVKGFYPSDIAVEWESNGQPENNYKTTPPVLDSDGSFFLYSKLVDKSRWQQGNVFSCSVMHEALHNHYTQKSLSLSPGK
T4 sequence (chain, as listed by the source limits assumed): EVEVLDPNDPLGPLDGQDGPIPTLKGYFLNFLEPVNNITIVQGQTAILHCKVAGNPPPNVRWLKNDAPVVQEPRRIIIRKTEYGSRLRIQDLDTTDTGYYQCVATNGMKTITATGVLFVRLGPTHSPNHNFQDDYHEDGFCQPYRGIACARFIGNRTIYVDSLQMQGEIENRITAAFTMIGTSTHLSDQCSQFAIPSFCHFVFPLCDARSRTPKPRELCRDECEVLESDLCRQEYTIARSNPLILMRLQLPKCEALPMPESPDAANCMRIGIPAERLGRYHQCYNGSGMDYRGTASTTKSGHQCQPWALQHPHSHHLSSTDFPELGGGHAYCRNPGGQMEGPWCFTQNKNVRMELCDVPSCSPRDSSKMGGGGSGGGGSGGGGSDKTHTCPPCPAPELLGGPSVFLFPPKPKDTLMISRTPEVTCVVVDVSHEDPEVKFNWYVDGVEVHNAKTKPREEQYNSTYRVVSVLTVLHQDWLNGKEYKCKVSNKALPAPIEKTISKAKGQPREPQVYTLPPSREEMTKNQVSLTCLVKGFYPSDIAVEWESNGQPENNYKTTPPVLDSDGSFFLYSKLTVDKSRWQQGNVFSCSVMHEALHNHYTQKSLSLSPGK
T6 sequence (Fc fusion chain, as listed by the source): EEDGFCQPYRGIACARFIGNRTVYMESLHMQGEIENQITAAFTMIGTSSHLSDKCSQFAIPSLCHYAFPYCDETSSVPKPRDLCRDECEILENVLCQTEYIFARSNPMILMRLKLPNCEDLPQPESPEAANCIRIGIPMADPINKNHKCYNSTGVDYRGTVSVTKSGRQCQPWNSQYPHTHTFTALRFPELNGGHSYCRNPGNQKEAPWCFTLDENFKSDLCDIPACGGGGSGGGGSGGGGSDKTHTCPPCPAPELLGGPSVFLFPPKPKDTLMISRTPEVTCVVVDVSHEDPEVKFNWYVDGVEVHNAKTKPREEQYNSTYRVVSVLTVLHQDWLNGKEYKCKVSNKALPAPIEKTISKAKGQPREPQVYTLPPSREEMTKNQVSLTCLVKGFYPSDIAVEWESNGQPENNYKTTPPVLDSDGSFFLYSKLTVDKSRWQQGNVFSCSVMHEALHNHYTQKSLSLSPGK
T3 sequence (chain, as listed by the source limits assumed): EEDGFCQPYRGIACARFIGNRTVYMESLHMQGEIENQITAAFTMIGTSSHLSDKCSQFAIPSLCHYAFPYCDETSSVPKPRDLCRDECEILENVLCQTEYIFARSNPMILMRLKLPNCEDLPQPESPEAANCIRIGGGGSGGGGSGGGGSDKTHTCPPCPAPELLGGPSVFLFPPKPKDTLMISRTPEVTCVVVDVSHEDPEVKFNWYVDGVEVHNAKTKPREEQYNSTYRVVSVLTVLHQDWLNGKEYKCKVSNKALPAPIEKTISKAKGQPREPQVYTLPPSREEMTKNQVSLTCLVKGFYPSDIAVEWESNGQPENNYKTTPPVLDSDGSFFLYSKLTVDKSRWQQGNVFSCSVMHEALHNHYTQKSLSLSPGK

For B1, the Kd turned out to be 19.1 nM in [1]; 25.6 nM in [2]; 15.9 nM in test [3]; 16.4 nM in [6]; 14.3 nM in [7]; 17.7 nM in test [8]. Besides, the koff in test [1] amounted to 0.0442 s⁻¹; in [2] it was 0.025 s⁻¹; in test [3], 0.0411 s⁻¹; in [6], 0.032 s⁻¹; in [7], 0.0408 s⁻¹; in [8], 0.045 s⁻¹. Besides, the kon in [1] is 2.47e+06 M⁻¹ s⁻¹; in [2], 980000 M⁻¹ s⁻¹; in test [3] it was 2.58e+06 M⁻¹ s⁻¹; in [6] it was 1.94e+06 M⁻¹ s⁻¹; in test [7], 2.95e+06 M⁻¹ s⁻¹; in [8] it was 2.86e+06 M⁻¹ s⁻¹. Also, the binding result in test [4] is on record as “binds”; in [5], “no binding (tested: 10 ug/ml)”; with Fz-Kr-Fc, “binds”; in the test with Peptide 5, “no binding”; in the test with Peptide 4, “no binding (tested: 1000 ng/ml)”; with Peptide 1 it was “no binding (tested: 1000 ng/ml)”. The binding result in the test with Peptide 3 and with Peptide 2 was “no binding (tested: 1000 ng/ml)” in each case.
For the molecule B2, the binding result (in [9]; with D3-[G4S]5-D3 his myc; in the test with P3A1 his myc; with D3 his myc) was “no binding (tested: 1000 nM)” throughout.

B3: 2V mFc (Fc fusion)
chain: TRVDQTPRTATKETGESLTINCVLTDTSYGLYSTSWFRKNPGTTDWERMSIGGRYVESVNKGAKSFSLRIKDLTVADSATYYCKAQSLAISTRSYWYDGAGTVLTVNGGGGSGGGGSGGGGSEPRGPTIKPCPPCKCPAPNLLGGPSVFIFPPKIKDVLMISLSPIVTCVVVDVSEDDPDVQISWFVNNVEVHTAQTQTHREDYNSTLRVVSALPIQHQDWMSGKEFKCKVNNKDLPAPIERTISKPKGSVRAPQVYVLPPPEEEMTKKQVTLTCMVTDFMPEDIYVEWTNNGKTELNYKNTEPVLDSDGSYFMYSKLRVEKKNWVERNSYSCSVVHEGLHNHHTTKSFSRTPGK
notes: control
As to B3, the binding result in test [10] and in test [11] was “no binding” in each case.

B4: BA11-2V HisMyc (VNAR)
chain: TRVDQSPSSLSASVGDRVTITCVLTDTSYPLYSTYWYRKNPGSSNKEQISISGRYSESVNKGTKSFTLTISSLQPEDSATYYCRAMSTNIWTGDGAGTKVEIKGGGGSGGGGSGGGGSGGGGSGGGGSTRVDQTPRTATKETGESLTINCVLTDTSYGLYSTSWFRKNPGTTDWERMSIGGRYVESVNKGAKSFSLRIKDLTVADSATYYCKAQSLAISTRSYWYDGAGTVLTVNQASGAHHHHHHGAEFEQKLISEEDL
Take B4: in the test with human serum albumin, the binding result is listed as “binds”.

B5: CPF7-[G4S]5-CPF7 his myc (VNAR)
chain: TRVDQTPRTATKETGESLTINCVVTGAKYGLFATYWYRKNPGSSNQERISISGRYVESVNKRTMSFSLRIKDLTVADSATYYCKAVFMPQHWHPAAHWYDGAGTVLTVNGGGGSGGGGSGGGGSGGGGSGGGGSTRVDQTPRTATKETGESLTINCVVTGAKYGLFATYWYRKNPGSSNQERISISGRYVESVNKRTMSFSLRIKDLTVADSATYYCKAVFMPQHWHPAAHWYDGAGTVLTVNQASGAHHHHHHGAEFEQKLISEEDL
notes: VNAR homodimer; also called CPF7-CPF7 dimer
As for B5, the binding result in test [12] is given as “binds”.

B6: P3A1-[G4S]5-P3A1 his myc (VNAR)
chain: TRVDQTPRTATKETGESLTINCVLTDTSYGLYSTSWFRKNPGTTDWERMSIGGRYVESVNKGAKSFSLRIKDLTVADSATYYCKAREARHPWLRQWYDGAGTVLTVNGGGGSGGGGSGGGGSGGGGSGGGGSTRVDQTPRTATKETGESLTINCVLTDTSYGLYSTSWFRKNPGTTDWERMSIGGRYVESVNKGAKSFSLRIKDLTVADSATYYCKAREARHPWLRQWYDGAGTVLTVNQASGAHHHHHHGAEFEQKLISEEDL
notes: VNAR homodimer by genetic fusion; also called P3A1-P3A1; P3A1 dimer
B6: the Kd in [1] was 0.3 nM; in test [2], 0.35 nM; in test [3] it was 0.385 nM; in [15], 0.3 nM; in test [16], 1.61 nM; in test [17] it was 3.08 nM. Moreover, the Kd was determined as 0.3 nM in [18], 0.538 nM in [19], 0.396 nM in test [7] and 0.57 nM in [8]. Further, the koff came out at 0.00112 s⁻¹ in [1]; 0.000637 s⁻¹ in test [2]; 0.000628 s⁻¹ in test [3]; 0.00296 s⁻¹ in [16]; 0.00226 s⁻¹ in [17]; 0.00117 s⁻¹ in [18]. In addition, the koff stood at 0.00141 s⁻¹ in [19], 0.000536 s⁻¹ in test [6], 0.00145 s⁻¹ in [7] and 0.00173 s⁻¹ in [8]. Moreover, the kon was determined as 4.9e+06 M⁻¹ s⁻¹ in test [1]; 2.08e+06 M⁻¹ s⁻¹ in test [2]; 1.63e+06 M⁻¹ s⁻¹ in test [3]; 1.86e+06 M⁻¹ s⁻¹ in test [16]; 734000 M⁻¹ s⁻¹ in [17]; 3.78e+06 M⁻¹ s⁻¹ in [18]. In addition, the kon was found to be 2.62e+06 M⁻¹ s⁻¹ in [19], 1.52e+06 M⁻¹ s⁻¹ in test [6], 4.17e+06 M⁻¹ s⁻¹ in [7] and 3.18e+06 M⁻¹ s⁻¹ in [8]. Moreover, the binding result in test [13] was “no binding”. The “Median YL1-PE” value in [14] was 2340.
